This is an account of results in a protein production outcome set (Wang et al. 2014).

This series is described as follows: label from the status in PepcDB records.

For the sequence “MGMIGYFAEIDSEKINQLLESTEKPLMDNIHDTLSGLRRLDIDKRWDFLHFGLTGTSAFDPAKNDPLSRAVLGEHSLEDGIDGFLGLTWNQELAATIDRLESLDRNELRKQFSIKRLNEMEIYPGVTFSEELEGQLFASIMLDMEKLISAYRRMLRQGNHALTVIVG”, the protein production result is on record as “not failed”.

As to “MGMMSSLRRLGKRRPVLGILFVVVLSIGLVGSYAIFSTPKAPVAPSESQAQAPDANQQAEAMQKAAQEQISKLETDIANLQKDLQAKPGDIATAVKLGDSQYNLGTLYLFVNGDQEKATQTFKAAVATYQQVLKLNPAEKGINLRLAGAALYAGDSKLAEDNFQAAIKADPNDNNARMTYGMYLASMKGDYQGAIDQWQEILKHNPDKDLATQVQEMIKQAETAKQDANKSAANQPPANQPQANGGQGSGK”, the protein production result is “failed”.

“MGNAGESKKSNSDSAKGEEKASGSLTISGSSAMQPLVLAAAEKFMEENPDADIQVQAGGSGTGLSQVSEGAVQIGNSDVFAEEKEGIDAKALVDHQVAVVGMAAAVNPDAGVKDISKDELKKIFTGKIKNWKELGGKDQKITLVNRPDSSGTRATFVKYALDGAEPAEGITEDSSNTVKKIIADTPGAIGYLAFSYLTDDKVTALSIDGVKPEAKNVATGEYPIWAYQHSYTKGEATGLAKEFLDYLKSEDIQKSIVTDQGYIPVTDMKVTRDANGKQSLEHHHHHH”: the protein production entry is given as “failed”.

Take “MGNCCGTAGSLAQNDNKPKKGRKKQNPFSIDYGLHHGGGDGGGRPLKLIVLNDPTGREIESKYTLGRELGRGEFGVTYLCTDKETDDVFACKSILKKKLRTAVDIEDVRREVEIMRHMPEHPNVVTLKETYEDEHAVHLVMELCEGGELFDRIVARGHYTERAAAAVTKTIMEVVQVCHKHGVMHRDLKPENFLFGNKKETAPLKAIDFGLSVFFKPGERFNEIVGSPYYMAPEVLKRNYGPEVDIWSAGVILYILLCGVPPFWAETEQGVAQAIIRSVLDFRRDPWPKVSENAKDLIRKMLDPDQKRRLTAQQVLDHPWLQNAKTAPNVSLGETVRARLKQFTVMNKLKKRALRVIAEHLSDEEASGIREGFQIMDTSQRGKINIDELKIGLQKLGHAIPQDDLQILMDAGDIDRDGYLDCDEFIAISVHLRKMGNDEHLKKAFAFFDQNNNGYIEIEELREALSDELGTSEEVVDAIIRDVDTDKDGRISYEEFVTMMKTGTDWRKASRQYSRERFNSISLKLMQDASLQSCVFDILANERAEYGDQERKTVLAFGCV”: the protein production result is listed as “failed”.

Take “MGNIIRALVAFIPTDRCQSYVVGDLREMPLDRMVDLSGSQLRRFPLHVCSFTELVKLYLSDNHLHSLPPDLAQLQNLQILALDFNNFKALPQAVCTLKQLCILYLGNNKLCDLPDELSLLQNLRTLWLESNCLTRLPDVVCELSLLKTLHAGSNALRLLPGQLRRLRELRTIWLSGNQLADFPSVLLHMPFLEVIDVDRNSIRYFPSLAHLTNLKLVIYDHNPCRNAPKVGKGVRRVGRWAEETPEPDRRKTRRSALAKEENQEPPPLLPPSS”: the protein production result is “failed”.

In the case of “MGNILKDKSMAFAIQIVNLHKYPNKRKAYSLSDQILISGTAIGVLQKETECAESNADFIHNIASPQKNVTKPFSGLNCYLKQNIYPKQNIQACLQTQMNLEHHHHHH”, the protein production entry is listed as “failed”.

For “MGNIYQITVEEKAEHQRTLSFEFSLHDDLFKLLEKVDGKMDMTPEQTQAFMVGLKLFGEVMMQQRKHPLFKEFSAPFRAFMMNLKKQ”, the protein production result is listed as “not failed”.

Turning to “MGNLSKPVGIGAGGLDLLMPMHLRLDPLGEIAGCGPTLRKLFAESPVRRPFFDLFKVRRPTGIETPAALAARTGVRLHLTTLDGGVSLRGVATPKHEGRGLLLNLSFGISVIEAVRRHGLTDGDFAPTDLAVELLYLVEAKTAVAEELRRLNGRLERARRLAEEEALTDELTGLRNRRAIDQALEAVIATRRPFGLMHLDLDFFKEVNDSFGHAAGDEVLRAVAQVLSRETRTGDTVARIGGDEFMMLFPGLSDPAPMKRLAARVIADVARPIPFGGGVCRVSASIGMTLSVRYDRPDLARMLADADEALYAAKRAGRGTAVLSEGMRPERRRDP”, the protein production result is “failed”.

On to “MGNYKFRISEMLPNAWFHKLKDVTKHSKPKNKASSSSSNTCSKKKPSSDSLPQHSYFSNSLVANNPPHHNSPRNSLHTKKMSKRKTLYKPSLKPLTPPPLLVSASFNKSKINDQDSSYSLFPAIETSPESFVYSFYEEDDDDEFVEFSNFKINTKNKAFTKQKVKVIDSVEKACTASKPIKKPQKSHLSVKISRDEDDNEYKAEKKYQRQVSSGRKPSAGINLKRVNSPRIQLSGTRRSTSRRSESKQDVLESFAVMKRSVDPKKDFRESMIEMIEENNIRASKDLEDLLACYLTLNPKEYHDLIIHVFEQIWLQLTKTK”, for which the protein production entry is reported as “failed”.
